Experimental data as given in patent US20120058051A1 (US Dept. of Health and Human Services, published 2012).

Tests used:
Fc-hROR1(d2d3) = target: T1, Fc-hROR1(d2d3) (human, UniProt Q01973 161-406, limits assumed); test: ELISA, coated domain construct
T1 construct: domain: d2-Frizzled and d3-Kringle; Order from the name; not shown: human Fc region

Fc-hROR1(d2) = target: T2, Fc-hROR1(d2) (human, UniProt Q01973 161-307, limits assumed); test: ELISA, coated domain construct
T2 construct: domain: d2-Frizzled; Order from the name; not shown: human Fc region

Fc-hROR(d3) = target: T3, Fc-hROR(d3) (human, UniProt Q01973 308-406, limits assumed); test: ELISA, coated domain construct
T3 construct: domain: d3-Kringle; Order from the name; not shown: human Fc region

[1] = target: T4, human ROR1-ECD (ROR1-derived extracellular domain fragment without Fc) (human, UniProt Q01973 30-406); test: SPR (BIACORE X100), ROR1-ECD coupled to CM5 chip, bivalent IgG injected, 1:1 Langmuir model
T4 construct: extracellular domain; also called hROR1ECD; ROR-ECD
T4 sequence (Q01973 30-406): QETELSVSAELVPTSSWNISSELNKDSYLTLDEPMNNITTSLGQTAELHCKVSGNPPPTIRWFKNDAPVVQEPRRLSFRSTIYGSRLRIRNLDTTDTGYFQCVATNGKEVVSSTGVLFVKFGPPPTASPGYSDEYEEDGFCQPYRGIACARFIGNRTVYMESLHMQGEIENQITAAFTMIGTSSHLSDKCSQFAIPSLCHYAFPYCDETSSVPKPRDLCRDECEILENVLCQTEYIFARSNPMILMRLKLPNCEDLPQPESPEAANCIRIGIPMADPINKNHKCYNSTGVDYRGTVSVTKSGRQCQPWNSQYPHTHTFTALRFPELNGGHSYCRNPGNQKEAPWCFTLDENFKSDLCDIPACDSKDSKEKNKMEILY

T1 sequence (Q01973 161-406 limits assumed): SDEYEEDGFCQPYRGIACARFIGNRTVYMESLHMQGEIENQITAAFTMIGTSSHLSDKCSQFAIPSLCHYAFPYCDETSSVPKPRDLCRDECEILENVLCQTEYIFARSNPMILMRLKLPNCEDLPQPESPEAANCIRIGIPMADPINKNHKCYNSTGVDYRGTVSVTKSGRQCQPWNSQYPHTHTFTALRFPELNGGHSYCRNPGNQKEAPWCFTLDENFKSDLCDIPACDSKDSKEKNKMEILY
T3 sequence (Q01973 308-406 limits assumed): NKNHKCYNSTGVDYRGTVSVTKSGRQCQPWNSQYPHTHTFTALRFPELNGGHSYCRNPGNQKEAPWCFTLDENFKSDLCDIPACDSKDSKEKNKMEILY
T2 sequence (Q01973 161-307 limits assumed): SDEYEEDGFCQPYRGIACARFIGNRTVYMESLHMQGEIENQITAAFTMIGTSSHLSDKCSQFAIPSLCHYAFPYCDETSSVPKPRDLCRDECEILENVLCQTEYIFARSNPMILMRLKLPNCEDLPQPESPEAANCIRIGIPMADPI

B1: mouse monoclonal antibody (mAb) 2A2 (antibody, mouse IgG1, V domains shown)
VH: QVQLQQSGAELVRPGASVTLSCKASGYTFSDYEMHWVIQTPVHGLEWIGAIDPETGGTAYNQKFKGKAILTADKSSSTAYMELRSLTSEDSAVYYCTGYYDYDSFTYWGQGTLVTVSA
VL: DIVMTQSQKIMSTTVGDRVSITCKASQNVDAAVAWYQQKPGQSPKLLIYSASNRYTGVPDRFTGSGSGTDFTLTISNMQSEDLADYFCQQYDIYPYTFGGGTKLEIK
notes: also called mouse mAb 2A2
Fc-hROR1(d2d3)
  binding result: no binding
Fc-hROR1(d2)
  binding result: no binding
Fc-hROR(d3)
  binding result: no binding
[1]
  Kd: 0.1 nM
